Measurements as given in IntAct's records for PubMed 15208391.

B1: Cullin-1 (Arabidopsis thaliana (Mouse-ear cress)), Q94AH6 (parent)
chain: MERKTIDLEQGWDYMQTGITKLKRILEGLNEPAFDSEQYMMLYTTIYNMCTQKPPHDYSQQLYDKYREAFEEYINSTVLPALREKHDEFMLRELFKRWSNHKVMVRWLSRFFYYLDRYFIARRSLPPLNEVGLTCFRDLVYNELHSKVKQAVIALVDKEREGEQIDRALLKNVLDIYVEIGMGQMERYEEDFESFMLQDTSSYYSRKASSWIQEDSCPDYMLKSEECLKKERERVAHYLHSSSEPKLVEKVQHELLVVFASQLLEKEHSGCRALLRDDKVDDLSRMYRLYHKILRGLEPVANIFKQHVTAEGNALVQQAEDTATNQVANTASVQEQVLIRKVIELHDKYMVYVTECFQNHTLFHKALKEAFEIFCNKTVAGSSSAELLATFCDNILKKGGSEKLSDEAIEDTLEKVVKLLAYISDKDLFAEFYRKKLARRLLFDRSANDDHERSILTKLKQQCGGQFTSKMEGMVTDLTLARENQNSFEDYLGSNPAANPGIDLTVTVLTTGFWPSYKSFDINLPSEMIKCVEVFKGFYETKTKHRKLTWIYSLGTCHINGKFDQKAIELIVSTYQAAVLLLFNTTDKLSYTEILAQLNLSHEDLVRLLHSLSCAKYKILLKEPNTKTVSQNDAFEFNSKFTDRMRRIKIPLPPVDERKKVVEDVDKDRRYAIDAAIVRIMKSRKVLGHQQLVSECVEQLSRMFKPDIKAIKKRMEDLITRDYLERDKENPNMFRYLA
partner: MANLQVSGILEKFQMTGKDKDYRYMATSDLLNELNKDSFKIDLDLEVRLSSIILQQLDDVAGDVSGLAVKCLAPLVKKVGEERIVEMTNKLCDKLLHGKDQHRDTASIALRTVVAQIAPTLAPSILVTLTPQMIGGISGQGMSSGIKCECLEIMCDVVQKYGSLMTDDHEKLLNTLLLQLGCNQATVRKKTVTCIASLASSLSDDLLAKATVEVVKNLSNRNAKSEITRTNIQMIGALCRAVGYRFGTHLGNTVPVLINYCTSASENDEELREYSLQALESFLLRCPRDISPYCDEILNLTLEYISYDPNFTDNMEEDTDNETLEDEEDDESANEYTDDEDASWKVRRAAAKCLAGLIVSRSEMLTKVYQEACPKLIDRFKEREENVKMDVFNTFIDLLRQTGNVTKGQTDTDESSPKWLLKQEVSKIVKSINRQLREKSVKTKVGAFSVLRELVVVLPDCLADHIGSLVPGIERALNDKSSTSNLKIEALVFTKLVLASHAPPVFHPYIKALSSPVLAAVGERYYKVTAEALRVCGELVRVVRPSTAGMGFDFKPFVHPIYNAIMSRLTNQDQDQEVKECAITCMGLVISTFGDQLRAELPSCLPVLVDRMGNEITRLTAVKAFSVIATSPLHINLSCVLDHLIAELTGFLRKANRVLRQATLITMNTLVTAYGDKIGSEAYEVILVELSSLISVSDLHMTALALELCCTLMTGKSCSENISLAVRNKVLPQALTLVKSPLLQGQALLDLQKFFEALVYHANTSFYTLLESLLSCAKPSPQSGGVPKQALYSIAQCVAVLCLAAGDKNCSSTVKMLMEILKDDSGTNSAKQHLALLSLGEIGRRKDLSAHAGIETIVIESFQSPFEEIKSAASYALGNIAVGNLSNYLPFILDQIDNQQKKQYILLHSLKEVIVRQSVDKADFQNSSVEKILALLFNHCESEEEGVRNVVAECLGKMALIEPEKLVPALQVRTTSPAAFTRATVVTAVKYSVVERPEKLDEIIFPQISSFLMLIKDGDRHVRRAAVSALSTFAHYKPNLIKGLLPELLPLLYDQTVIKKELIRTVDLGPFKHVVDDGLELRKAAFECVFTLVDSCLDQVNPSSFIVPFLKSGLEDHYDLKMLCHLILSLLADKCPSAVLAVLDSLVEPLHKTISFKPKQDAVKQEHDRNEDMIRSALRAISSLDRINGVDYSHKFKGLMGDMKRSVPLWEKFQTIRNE

Variants of: B1
Settings: with cand1_arath CAND1, Q8L5Y6

effect of a mutation on the interaction	Variant
increasing interaction strength	K682R
